The text below walks through data of patent publication US20190233519A1.

What is called Kd is the constant that tells how readily two partners part at equilibrium. Broadly, the IC50 is the midpoint of a concentration-inhibition curve.

The target in one assay is CTLA-4-His protein (UniProt P16410). Nature of the assay: SPR, antibody captured by Fc, CTLA-4-His as analyte. In general terms: Surface plasmon resonance follows binding to a sensor surface in real time, without labels.
Assay [1] addresses biotin-labeled hCTLA-4/Fc protein (UniProt P16410). Nature of the assay: FACS competition, biotin hCTLA-4-Fc on CHO cells expressing human B7-1.

biotin-labeled hCTLA-4/Fc protein, sequence (P16410 37-161): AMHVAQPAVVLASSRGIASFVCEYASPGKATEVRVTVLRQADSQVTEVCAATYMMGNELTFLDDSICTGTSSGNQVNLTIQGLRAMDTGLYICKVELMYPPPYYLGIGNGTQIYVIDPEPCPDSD
CTLA-4-His protein, sequence (P16410 37-161 limits assumed): as the sequence (P16410 37-161) above

ipilimumab (YERVOY®) (antibody) gave a dissociation constant Kd in the assay with CTLA-4-His protein of 17.3 nM. For the same substance, the IC50 in assay [1] stood at 8.5 nM.
